For two molecules, Kd and koff results are on record in PMC9061850, “Structural basis for the inhibition of IAPP fibril formation by the co-chaperonin prefoldin” (Nature Communications, 2022).

Positions of bridges follow the written chain, without caps; N, C: chain ends. No end group written: not given here. *: point of attachment. Biotin = O=C1N[C@H]2[C@H](CS[C@H]2CCCCC(=O)*)N1; βAla = NCCC(=O)O

Test [1] has as its target T1, Prefoldin from Pyrococcus horikoshii (PhPFD, α2β4 heterohexamer, 86.4 kDa) (Pyrococcus horikoshii, UniProt O58263 1-148; O58268 1-117, S98G).
T1 construct: Prefoldin α-subunit, Pyrococcus horikoshii, with the point mutation S98G; Prefoldin β-subunit, Pyrococcus horikoshii; Used unlabelled (NMR titration, BLI, EM, ThT assays) and, for the PRE experiments, highly deuterated with 15N or 13CH3 labels on either the α- or the β-subunit; also called archaeal prefoldin; source: E. coli BL21 (DE3), α- and β-subunit from separate pET23c plasmids, purified …
T1 sequence 1: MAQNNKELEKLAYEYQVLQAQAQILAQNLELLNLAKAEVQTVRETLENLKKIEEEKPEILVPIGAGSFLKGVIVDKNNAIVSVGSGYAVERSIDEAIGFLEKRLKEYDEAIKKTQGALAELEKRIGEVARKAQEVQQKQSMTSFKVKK
T1 sequence 2: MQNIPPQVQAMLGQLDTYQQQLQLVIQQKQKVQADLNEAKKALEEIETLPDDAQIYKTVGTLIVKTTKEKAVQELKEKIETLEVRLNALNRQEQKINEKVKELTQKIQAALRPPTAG
Kind of test: BLI; biotinylated monomeric IAPP immobilised on Super Streptavidin biosensors, quenched with biotin; PhPFD 0.5 µM to 150 µM in solution; room temperature; 50 mM MES/NaOH (pH 6.5), 25 mM MgCl2; steady state analysis. The following applies: both partners purified. On the technique in general: Biolayer interferometry detects binding as a change in optical thickness at a sensor tip.

Test [2] deals with T1, Prefoldin from Pyrococcus horikoshii …. Kind of test: NMR titration; unlabeled PhPFD added to 29 µM U-[15N]-IAPP, ratios 1:0 to 1:8; 2D 15N-SOFAST-HMQC at 30 °C; 25 mM MES/NaOH (pH 6.5), 25 mM MgCl2; TITAN global lineshape fitting, two-state model assuming 1:1 stoichiometry; apparent. To be noted: both partners purified.

B1: biotinylated IAPP (biotinyl-[β-Ala]-[β-Ala]-IAPP-NH2), monomeric (peptide)
peptide: {Biotin-βAla-βAla}-KCNTATCATQRLANFLVHSSNNFGAILSSTNVGSNTY-NH2
modifications: disulfide 2-7
SMILES: CC[C@H](C)[C@H](NC(=O)[C@H](C)NC(=O)CNC(=O)[C@H](Cc1ccccc1)NC(=O)[C@H](CC(N)=O)NC(=O)[C@H](CC(N)=O)NC(=O)[C@H](CO)NC(=O)[C@H](CO)NC(=O)[C@H](Cc1c[nH]cn1)NC(=O)[C@@H](NC(=O)[C@H](CC(C)C)NC(=O)[C@H](Cc1ccccc1)NC(=O)[C@H](CC(N)=O)NC(=O)[C@H](C)NC(=O)[C@H](CC(C)C)NC(=O)[C@H](CCCNC(=N)N)NC(=O)[C@H](CCC(N)=O)NC(=O)[C@@H](NC(=O)[C@H](C)NC(=O)[C@@H]1CSSC[C@H](NC(=O)[C@H](CCCCN)NC(=O)CCNC(=O)CCNC(=O)CCCC[C@@H]2SC[C@@H]3NC(=O)N[C@@H]32)C(=O)N[C@@H](CC(N)=O)C(=O)N[C@@H]([C@@H](C)O)C(=O)N[C@@H](C)C(=O)N[C@@H]([C@@H](C)O)C(=O)N1)[C@@H](C)O)C(C)C)C(=O)N[C@@H](CC(C)C)C(=O)N[C@@H](CO)C(=O)N[C@@H](CO)C(=O)N[C@H](C(=O)N[C@@H](CC(N)=O)C(=O)N[C@H](C(=O)NCC(=O)N[C@@H](CO)C(=O)N[C@@H](CC(N)=O)C(=O)N[C@H](C(=O)N[C@@H](Cc1ccc(O)cc1)C(N)=O)[C@@H](C)O)C(C)C)[C@@H](C)O
notes: Human islet amyloid polypeptide (IAPP, amylin), 37 residues; numbers count on: the mature protein; Molecular mass 4271.9 Da, purity 99.2%; also called monomeric biotinylated IAPP; source: synthetic peptide (custom synthesized, Pepscan, Lelystad); not shown: biotin, N-terminal, kept
On to B1, for which the Kd in test [1] came to 11 ± 1.2 µM.

B2: U-[15N]-labeled recombinant human IAPP (non-amidated), monomeric (peptide)
peptide: KCNTATCATQRLANFLVHSSNNFGAILSSTNVGSNTY-OH
modifications: ends and bridges not checked; also: U-[15N] isotope label
notes: Human islet amyloid polypeptide (IAPP, amylin); numbers count on: the mature protein; also called U-[15N]-IAPP; monomeric IAPP; source: preparative RP-HPLC as final step
In the case of B2, in test [2], the Kd worked out at 61 µM and the koff (in general, a measure of how fast the partners let go of each other) was around 6000 s⁻¹.
